Target: CaCl2-washed photosystem II complex (T. elongatus | T. elongatus (endogenous)) (UniProt Q8DIF8)
Assay: native gel or EMSA

- stoichiometry N: 2
Substance: CaCl2-washed photosystem II complex (from UniProt Q8DIF8 1-461; P0A444 1-344; Q8DIQ1 1-510)

Source: doi:10.1101/2021.06.28.450235
